Measurements reported in patent publication US20050053923A1.

How the values were obtained:
[1] = target: Semi-purified recombinant West Nile virus NS1 with 8-His tag (West Nile virus) (UniProt Q9Q6P4); assay: sandwich ELISA: coated mAb 3.1112G captures rNS1, rabbit anti-WNV-NS1 polyclonal detection
[2] = target: recombinant NS1 (rNS1), construct not stated; assay: as above

UniProt Q9Q6P4, sequence (Q9Q6P4 799-1144, tags or fused parts left off): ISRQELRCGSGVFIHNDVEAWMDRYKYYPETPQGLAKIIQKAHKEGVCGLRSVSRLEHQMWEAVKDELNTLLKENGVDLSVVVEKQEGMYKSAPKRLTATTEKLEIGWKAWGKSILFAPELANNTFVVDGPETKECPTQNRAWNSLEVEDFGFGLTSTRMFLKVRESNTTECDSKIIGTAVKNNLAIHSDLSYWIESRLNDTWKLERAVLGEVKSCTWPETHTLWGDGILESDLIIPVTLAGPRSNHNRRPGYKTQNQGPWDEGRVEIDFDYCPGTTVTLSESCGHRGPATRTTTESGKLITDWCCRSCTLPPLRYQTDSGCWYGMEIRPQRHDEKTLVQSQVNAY

Work on “monoclonal antibody against Kunjin NS1 (3.1112G, Chemicon International)” yielded an O.D. [1] of 0.887 O.D. 450 nm and an O.D. [2] of 0.577 O.D. 450 nm.
